This data set has as its system Nc1ccccc1C(=O)O. In words: Michaelis-Menten chlorination assay, HPLC, Fre-coupled. The note with it: Fre in excess, 30 °C. In kind it is biochemical, Pseudomonas fluorescens. From the text:
Michaelis-Menten chlorination assay, HPLC, Fre-coupled on PrnA
PrnA (Pseudomonas fluorescens; E450K): the Km was 384 ± 93 µM, the kcat was determined as 0.0155 ± 0.000833 s⁻¹ and the kcat/Km worked out at 40 ± 10 M⁻¹ s⁻¹.

For “PrnA (Pseudomonas fluorescens; E450K/F454K)”, the Km is 205 ± 16 µM, the kcat was 0.0303 ± 0.000667 s⁻¹ and the kcat/Km was determined as 148 ± 11.7 M⁻¹ s⁻¹.

On to “PrnA (Pseudomonas fluorescens; E450K/F454R)”, for which the Km was found to be 378 ± 59 µM, the kcat was determined as 0.0212 ± 0.00117 s⁻¹ and the kcat/Km came to 56.7 ± 10 M⁻¹ s⁻¹.

Take PrnA (Pseudomonas fluorescens; F454K): the Km amounted to 3628 ± 1108 µM, the kcat stood at 0.061 ± 0.0112 s⁻¹ and the kcat/Km was 16.7 ± 6.67 M⁻¹ s⁻¹.

The term Km denotes the concentration of substrate that gives half-maximal velocity. Broadly, the kcat is the number of substrate molecules converted per active site and unit of time at saturation. Usually kcat/Km stands for the turnover number divided by the Michaelis constant.

Source of the values: PMC5659210, “Extending the biocatalytic scope of regiocomplementary flavin-dependent halogenase enzymes” (Chemical Science, 2015).
